Measured values as given in article PMC6382870.

Tests used:
[1] = biological target: PvNV capsid protein (1-368) (Penaeus vannamei nodavirus (PvNV)); test: cryo-EM structure; T = 3 PvNV-LP particles (~29-35 nm) picked from the assembled sample, 6 mg/mL, icosahedral symmetry, 3.5 Å
[2] = biological target: PvNV capsid protein (1-368) (Penaeus vannamei nodavirus (PvNV)); test: cryo-EM structure; T = 1 PvNV-LP particles (~22-24 nm) picked from the same sample, icosahedral symmetry, 3.7 Å
[3] = biological target: MrNVPd double-mutant Y293A/D295A (Macrobrachium rosenbergii nodavirus (MrNV)); test: SEC; P-domains without the SUMO-tag; column and buffer not stated
[4] = biological target: MrNVPd (246-371) (Macrobrachium rosenbergii nodavirus (MrNV)); test: as above
[5] = biological target: PvNVPd (250-368) (Penaeus vannamei nodavirus (PvNV)); test: as above
[6] = biological target: MrNVPd double-mutant K327A/D329A (Macrobrachium rosenbergii nodavirus (MrNV)); test: as above

## PvNV capsid protein (1-368) (natural protein)
[1]
  stoichiometry N: 180 copies
[2]
  stoichiometry N: 60

## MrNVPd double-mutant Y293A/D295A (domain or fragment)
[3]
  stoichiometry N: 2

## MrNVPd (246-371) (domain or fragment)
[4]
  stoichiometry N: 2

## PvNVPd (250-368) (domain or fragment)
[5]
  stoichiometry N: 2

## MrNVPd double-mutant K327A/D329A (domain or fragment)
[6]
  stoichiometry N: 2
